For the assay, the target named is T1, Zur (zinc uptake repressor), purified (UniProt P9WN85 1-130).
T1 sequence: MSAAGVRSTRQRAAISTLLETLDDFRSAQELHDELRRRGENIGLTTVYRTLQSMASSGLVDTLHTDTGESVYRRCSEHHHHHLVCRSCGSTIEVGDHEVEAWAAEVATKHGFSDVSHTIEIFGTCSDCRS
Description: SPR; Biacore 3000; […] (200 nM) […]; running buffer 10 mM HEPES pH 7.4, 150 mM NaCl, 50 mM EDTA, 0.005% surfactant P20. The conditions noted are these: both partners purified. (SPR reads the build-up and loss of mass on a sensor chip optically.)

B1: CmtR, His-tagged, purified (natural protein)
chain: MLTCEMRESALARLGRALADPTRCRILVALLDGVCYPGQLAAHLGLTRSNVSNHLSCLRGCGLVVATYEGRQVRYALADSHLARALGELVQVVLAVDTDQPCVAERAASGEAVEMTGS
notes: also called His-tagged CmtR
Regarding B1, the binding result is reported as “binds”.

The values above are taken from article PMC7863910, “A novel stress-inducible CmtR-ESX3-Zn^2+ regulatory pathway essential for survival of Mycobacterium bovis under oxidative stress” (The Journal of Biological Chemistry, 2020).
